Test results as given in patent US20120039904A1 (Kyowa Kirin, published 2012).

T1: human ASCT2 (system ASC amino acid transporter 2), endogenous on human tumour cell lines (human, UniProt Q15758 1-541)
T1 construct: Endogenous ASCT2 of cell lines KMS-11 (stated to express ASCT2 mRNA), WiDr and OPM-2; also called SLC1A5; ASCT2 on KMS-11, OPM-2, WiDr cells
T1 sequence: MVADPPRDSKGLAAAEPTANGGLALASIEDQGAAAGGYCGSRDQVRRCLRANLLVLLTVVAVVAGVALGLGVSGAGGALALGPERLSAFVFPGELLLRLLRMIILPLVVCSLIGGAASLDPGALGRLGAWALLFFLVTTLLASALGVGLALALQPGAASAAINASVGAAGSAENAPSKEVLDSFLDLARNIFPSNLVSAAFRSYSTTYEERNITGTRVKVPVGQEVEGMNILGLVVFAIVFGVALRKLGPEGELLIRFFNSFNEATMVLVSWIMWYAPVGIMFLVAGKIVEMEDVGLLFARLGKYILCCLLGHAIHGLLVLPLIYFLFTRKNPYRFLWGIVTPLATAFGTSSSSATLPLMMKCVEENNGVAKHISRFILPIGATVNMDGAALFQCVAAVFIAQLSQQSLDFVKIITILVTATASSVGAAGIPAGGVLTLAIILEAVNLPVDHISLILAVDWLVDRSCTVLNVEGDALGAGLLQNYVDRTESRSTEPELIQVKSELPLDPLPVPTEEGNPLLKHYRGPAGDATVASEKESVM

T2: human ASCT2-myc/His (fusion protein in which myc/His was added to the C-terminal of human ASCT2), expressed … (human, UniProt Q15758 1-541)
T2 construct: Amino acid transporter with C-terminal myc/His tag, stably expressed in CHO/DG44 cells; cell lysates of these cells were used for Western blotting and immunoprecipitation; also called ASCT2/CHO; human ASCT2-myc/His gene-introduced CHO cell
T2 sequence: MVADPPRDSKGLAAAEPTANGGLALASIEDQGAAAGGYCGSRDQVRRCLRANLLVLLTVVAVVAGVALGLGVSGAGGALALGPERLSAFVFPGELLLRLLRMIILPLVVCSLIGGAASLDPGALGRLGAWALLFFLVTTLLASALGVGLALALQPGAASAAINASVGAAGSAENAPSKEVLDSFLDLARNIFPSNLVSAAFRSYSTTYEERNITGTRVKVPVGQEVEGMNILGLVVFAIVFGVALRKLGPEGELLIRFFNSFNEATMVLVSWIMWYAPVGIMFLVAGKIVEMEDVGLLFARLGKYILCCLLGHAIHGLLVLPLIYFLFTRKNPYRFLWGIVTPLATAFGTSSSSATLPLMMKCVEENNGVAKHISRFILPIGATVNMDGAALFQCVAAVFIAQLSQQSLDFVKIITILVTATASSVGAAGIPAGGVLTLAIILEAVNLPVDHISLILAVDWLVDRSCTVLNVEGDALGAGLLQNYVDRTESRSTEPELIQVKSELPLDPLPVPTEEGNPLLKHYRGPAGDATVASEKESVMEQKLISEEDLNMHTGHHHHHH

T3: mouse EL4 type ASCT2-myc/His (mouse/human chimeric ASCT2), expressed on CHO cells (human/mouse chimera, UniProt Q15758 1-541)
T3 construct: also called mEL4/CHO; mEL4
T3 sequence: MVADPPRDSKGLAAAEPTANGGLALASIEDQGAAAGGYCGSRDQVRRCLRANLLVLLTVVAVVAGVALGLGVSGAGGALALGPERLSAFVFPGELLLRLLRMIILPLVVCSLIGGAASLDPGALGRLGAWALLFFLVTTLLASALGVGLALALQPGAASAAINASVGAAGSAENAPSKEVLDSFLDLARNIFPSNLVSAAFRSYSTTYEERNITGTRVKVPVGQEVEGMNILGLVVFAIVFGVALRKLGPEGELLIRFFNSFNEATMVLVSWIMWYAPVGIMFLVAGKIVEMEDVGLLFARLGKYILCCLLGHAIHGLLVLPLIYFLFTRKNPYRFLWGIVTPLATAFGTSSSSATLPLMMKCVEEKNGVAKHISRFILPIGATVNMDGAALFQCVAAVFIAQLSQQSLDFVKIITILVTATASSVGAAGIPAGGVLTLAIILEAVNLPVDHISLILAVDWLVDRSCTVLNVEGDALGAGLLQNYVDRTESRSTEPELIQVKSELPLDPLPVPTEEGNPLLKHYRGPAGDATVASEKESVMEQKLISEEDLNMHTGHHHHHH


Tests used:
[1] = molecular target: T1, human ASCT2 (system ASC amino acid …); test: flow cytometry on OPM-2 cells
Description: Each of the human ASCT2-myc/His gene-introduced CHO cell obtained in Example 2, and the multiple myeloma cell line OPM-2 (DSMZ Accession No. ACC50) was cultured in a 5% CO₂ incubator for 3 to 4 days at 37° C. The human ASCT2-myc/His gene-introduced CHO cells were detached with a 0.02% EDTA solution (manufactured by Nacalai Tesque), and in order to avoid the non-specific adsorption of antibodies, the cells were blocked for 30 minutes at ice temperature using 1% BSA-PBS.
The cells were seeded into a 96-well U-bottom plate so as to give a density of 1×10⁵ to 5×10⁵ cells/100 μL/well. The plates were centrifugation at 1,500 rpm for 5 minutes (05PR-22, manufactured by Hitachi Koki), and then the supernatant was removed.
As the primary antibody, the purified antibody which was a test substance was diluted to give a final concentration of 0.01 μg/mL to 10 μg/mL in 1% BSA-PBS, and dispensed to the plate at 100 μL/well, followed by reaction at ice temperature for 60 minutes. After washing the cells with 1% BSA-PBS, FITC-labeled anti-human immunoglobulin G (H+L) (manufactured by Jackson Laboratories) diluted with 1% BSA-PBS was added as the secondary antibody, followed by reaction at ice temperature for 30 minutes protected from light. The cells were washed with 1% BSA-PBS and then suspended in PBS. The fluorescence intensity of the cells was measured by a flow cytometer (Cytomics FC500 MPL, manufactured by Beckman Coulter).

[2] = molecular target: T2, human ASCT2-myc/His (fusion protein in …); test: flow cytometry on human ASCT2-myc/His gene-introduced CHO cells
[3] = molecular target: T1, human ASCT2 (system ASC amino acid …); test: flow cytometry on KMS-11 cells
[4] = molecular target: T3, mouse EL4 type ASCT2-myc/His …; test: flow cytometry on mEL4/CHO cells; '+' = presence of reactivity
Description: Using the mouse ASCT2/CHO and mouse/human chimeric ASCT2/CHO cells constructed in Examples 10 and 11 and FITC-labeled anti-mouse immunoglobulin G (H+L) (manufactured by Dako) or ALEXA488-labeled anti-rat immunoglobulin G […] (manufactured by Invitrogen) as the secondary antibody, the reactivity of anti-ASCT2 monoclonal antibodies KM4008, KM4012 and KM4018 was measured in the same manner as in Example 9(1).
In Table 2, the symbols “+”, “−”, and “±” represent the presence of reactivity, the absence of reactivity, and the decrease in reactivity, respectively.

[5] = molecular target: T2, human ASCT2-myc/His (fusion protein in …); test: flow cytometry on human ASCT2/CHO cells; '+' = presence of reactivity

Binder	binding result [1]	binding result [2]	binding result [3]	binding result [4]	binding result [5]
anti-ASCT2 human chimeric antibody cKM4018 (antibody, V domains shown, VH and VL of KM4018 joined to human CH and CL of vector pKANTEX93; IgG class) VH: EVQLVESGGGLVQSGRSIRLSCAASGFSFSNYYMAWVRQAPSKGLEWVASITKGGGNTYYRDSVKGRFTFSRDNAKSTLYLQMDSLRSEDTATYYCARQVTIAAVSTSYFDSWGQGVMVTVSS VL: DIVLTQSPALAVSLGQRATISCKTNQKVDYYGNSYVYWYQQKPGQQPKLLIYLASNLASGIPARFSGRGSGTDFTLTIDPVEADDTATYYCQQSRNLPYTFGAGTKLELKR	binds	binds			
anti-ASCT2 humanized antibody KM4008HV2LV3 (antibody, V domains shown, Expressed from vector pKANTEX93 with human CH and CL; SDS-PAGE pattern of an IgG class antibody) VH: QVQLVQSGSELKKPGAPVKVSCKASGYTFSTFGMSWVRQAPGQGLKWMGWIHTYAGVPIYGDDFKGRFVFSLDTSVSTAYLQISSLKAEDTAVYFCARRSDNYRYFFDYWGQGTTVTVSS VL: DIQMTQSPSSLSASLGDRVTITCRASQDIRNYLNWYQQKPGKAPKLLIYYTSRLHSGVPSRFSGSGSGTDYTLTISSLQPEDFATYFCQQGHTLPPTFGQGTKLEIK		binds	binds		
anti-ASCT2 humanized antibody KM4008HV10LV3 (antibody, V domains shown, Expressed from vector pKANTEX93 with human CH and CL; SDS-PAGE pattern of an IgG class antibody) VH: QIQLVQSGPELKKPGAPVKISCKASGYTFTTFGMSWVKQAPGQGLKWMGWIHTYAGVPIYGDDFKGRFVFSLDTSVSTAYLQISSVKAEDTATYFCARRSDNYRYFFDYWGQGTTLTVSS VL: DIQMTQSPSSLSASLGDRVTITCRASQDIRNYLNWYQQKPGKAPKLLIYYTSRLHSGVPSRFSGSGSGTDYTLTISSLQPEDFATYFCQQGHTLPPTFGQGTKLEIK		binds	binds		
anti-ASCT2 monoclonal antibody KM4008 (antibody, V domains shown, mouse IgG3, kappa (amplified with a mouse Ig kappa primer)) VH: QIQLVQSGPELKKPGETVKISCKASGYTFTTFGMSWVKQVPGKGLKWMGWIHTYAGVPIYGDDFKGRFAFSLETSASTAYLQINNVKNEDTATYFCARRSDNYRYFFDYWGQGTTLTVSS VL: DIQMTQTTSSLSASLGDRVTISCRASQDIRNYLNWYQRKPHGTVKLLIYYTSRLHSGVPSRFSGSGSGTDYSLTISNLEQEDIATYFCQQGHTLPPTFGGGTKLEIKR			binds	binds	binds
anti-ASCT2 human chimeric antibody cKM4008 (antibody, V domains shown, VH and VL of KM4008 joined to human CH and CL of vector pKANTEX93; SDS-PAGE pattern of the IgG class) VH: QIQLVQSGPELKKPGETVKISCKASGYTFTTFGMSWVKQVPGKGLKWMGWIHTYAGVPIYGDDFKGRFAFSLETSASTAYLQINNVKNEDTATYFCARRSDNYRYFFDYWGQGTTLTVSS VL: DIQMTQTTSSLSASLGDRVTISCRASQDIRNYLNWYQRKPHGTVKLLIYYTSRLHSGVPSRFSGSGSGTDYSLTISNLEQEDIATYFCQQGHTLPPTFGGGTKLEIKR	binds	binds			

Results, then the binder that gave them:

binding result [1]	binding result [2]	binding result [3]	binding result [4]	binding result [5]	Binder
		binds	binds	binds	anti-ASCT2 monoclonal antibody KM4012 (antibody, mouse IgG2b, V domains shown, mouse IgG2b, kappa) VH: QIQLVQSGPELKKPGETVKISCKASGYTFTTYGMSWVKQTPGKGLKWMGWIHTYSGVPIYGDDSKGRFAFSLETSGSIAYLQINNVKNEDTATYFCARRSDGYRYFFDYWGQGTTLTVSS VL: DIQMTQITSSLSASLGDRVTISCRASQDIRNYLNWYQQKPDGTVKLLIYYTSRLHSGVPSRFSGSGSGTDYSLTISNLEQEDIATYFCQQGNTLPPTFGGGTKLEIKR
binds	binds				anti-ASCT2 human chimeric antibody cKM4012 (antibody, V domains shown, VH and VL of KM4012 joined to human CH and CL of vector pKANTEX93; IgG class) VH: QIQLVQSGPELKKPGETVKISCKASGYTFTTYGMSWVKQTPGKGLKWMGWIHTYSGVPIYGDDSKGRFAFSLETSGSIAYLQINNVKNEDTATYFCARRSDGYRYFFDYWGQGTTLTVSS VL: DIQMTQITSSLSASLGDRVTISCRASQDIRNYLNWYQQKPDGTVKLLIYYTSRLHSGVPSRFSGSGSGTDYSLTISNLEQEDIATYFCQQGNTLPPTFGGGTKLEIKR
